Test results from PMC7610778 (Science (New York, N.Y.), 2020).
Blank lines part the entries; values can stand above or below the binder they belong to.

Tests used:
[1] = target: the molecule itself
Atg2-Atg18-CBP complex = Atg2-Atg18-CBP complex (yeast (S. cerevisiae), UniProt P53855;P43601); assay: pull-down
Atg2-mEGFP = Atg2-mEGFP (yeast (S. cerevisiae), UniProt P53855 1-1592); assay: pull-down
mCherry-Atg11 = target: T1, mCherry-Atg11 (yeast (S. cerevisiae), UniProt Q12527 1-1178); assay: pull-down
T1 sequence: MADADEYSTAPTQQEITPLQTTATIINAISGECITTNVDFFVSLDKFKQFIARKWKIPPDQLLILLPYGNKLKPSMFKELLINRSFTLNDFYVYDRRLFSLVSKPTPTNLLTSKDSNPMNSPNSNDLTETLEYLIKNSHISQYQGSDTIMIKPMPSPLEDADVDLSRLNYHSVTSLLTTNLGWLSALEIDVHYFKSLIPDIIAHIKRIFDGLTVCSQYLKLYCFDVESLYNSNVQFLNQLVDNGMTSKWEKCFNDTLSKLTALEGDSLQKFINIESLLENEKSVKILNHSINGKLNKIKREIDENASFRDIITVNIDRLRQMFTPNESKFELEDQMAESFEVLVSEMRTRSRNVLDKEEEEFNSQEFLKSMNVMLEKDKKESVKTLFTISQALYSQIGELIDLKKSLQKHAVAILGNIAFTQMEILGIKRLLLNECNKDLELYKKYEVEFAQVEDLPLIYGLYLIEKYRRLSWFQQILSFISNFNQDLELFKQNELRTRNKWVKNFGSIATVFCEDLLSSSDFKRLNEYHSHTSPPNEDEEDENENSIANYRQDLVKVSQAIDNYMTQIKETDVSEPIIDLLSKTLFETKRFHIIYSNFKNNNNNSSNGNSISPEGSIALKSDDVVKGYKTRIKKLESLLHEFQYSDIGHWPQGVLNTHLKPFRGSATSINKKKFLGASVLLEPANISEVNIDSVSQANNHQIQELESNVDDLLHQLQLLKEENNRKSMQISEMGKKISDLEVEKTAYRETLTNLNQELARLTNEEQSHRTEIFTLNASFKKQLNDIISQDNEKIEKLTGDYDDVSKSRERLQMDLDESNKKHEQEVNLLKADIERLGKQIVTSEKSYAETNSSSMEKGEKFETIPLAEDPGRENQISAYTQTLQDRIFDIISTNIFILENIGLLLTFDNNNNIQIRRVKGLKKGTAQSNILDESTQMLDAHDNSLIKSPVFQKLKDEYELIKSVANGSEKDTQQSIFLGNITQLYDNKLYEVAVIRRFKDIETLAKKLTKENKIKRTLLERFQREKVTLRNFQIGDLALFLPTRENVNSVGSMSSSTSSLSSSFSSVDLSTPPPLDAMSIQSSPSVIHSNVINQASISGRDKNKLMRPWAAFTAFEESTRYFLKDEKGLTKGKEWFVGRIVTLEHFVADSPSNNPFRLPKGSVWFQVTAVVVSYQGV

[2] = target: T2, Atg12–Atg5-Atg16-mCherry complex (yeast (S. cerevisiae), UniProt P38316;Q12380;Q03818, Atg12–Atg5 conjugate | Atg12–Atg5 conjugate); assay: membrane recruitment to GUVs imaged by microscopy
T2 sequence 1: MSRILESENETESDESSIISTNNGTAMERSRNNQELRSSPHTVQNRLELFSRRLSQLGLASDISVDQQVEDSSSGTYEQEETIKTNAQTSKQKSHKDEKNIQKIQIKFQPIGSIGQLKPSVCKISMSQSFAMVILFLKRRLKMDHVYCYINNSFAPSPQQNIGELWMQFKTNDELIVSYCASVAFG
T2 sequence 2: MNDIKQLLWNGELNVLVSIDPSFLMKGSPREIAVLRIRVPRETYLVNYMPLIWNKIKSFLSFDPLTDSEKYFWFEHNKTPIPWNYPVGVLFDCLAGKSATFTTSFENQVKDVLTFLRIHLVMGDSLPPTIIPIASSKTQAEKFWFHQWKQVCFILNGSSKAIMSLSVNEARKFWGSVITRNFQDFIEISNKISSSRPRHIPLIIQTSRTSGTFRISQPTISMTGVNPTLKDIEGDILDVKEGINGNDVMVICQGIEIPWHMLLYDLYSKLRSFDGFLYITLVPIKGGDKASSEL
T2 sequence 3: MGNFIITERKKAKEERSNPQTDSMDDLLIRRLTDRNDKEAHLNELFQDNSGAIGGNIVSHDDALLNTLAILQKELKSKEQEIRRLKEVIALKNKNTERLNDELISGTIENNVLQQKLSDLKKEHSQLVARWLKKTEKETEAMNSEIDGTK

Chain of Atg2-mEGFP (P53855 whole entry): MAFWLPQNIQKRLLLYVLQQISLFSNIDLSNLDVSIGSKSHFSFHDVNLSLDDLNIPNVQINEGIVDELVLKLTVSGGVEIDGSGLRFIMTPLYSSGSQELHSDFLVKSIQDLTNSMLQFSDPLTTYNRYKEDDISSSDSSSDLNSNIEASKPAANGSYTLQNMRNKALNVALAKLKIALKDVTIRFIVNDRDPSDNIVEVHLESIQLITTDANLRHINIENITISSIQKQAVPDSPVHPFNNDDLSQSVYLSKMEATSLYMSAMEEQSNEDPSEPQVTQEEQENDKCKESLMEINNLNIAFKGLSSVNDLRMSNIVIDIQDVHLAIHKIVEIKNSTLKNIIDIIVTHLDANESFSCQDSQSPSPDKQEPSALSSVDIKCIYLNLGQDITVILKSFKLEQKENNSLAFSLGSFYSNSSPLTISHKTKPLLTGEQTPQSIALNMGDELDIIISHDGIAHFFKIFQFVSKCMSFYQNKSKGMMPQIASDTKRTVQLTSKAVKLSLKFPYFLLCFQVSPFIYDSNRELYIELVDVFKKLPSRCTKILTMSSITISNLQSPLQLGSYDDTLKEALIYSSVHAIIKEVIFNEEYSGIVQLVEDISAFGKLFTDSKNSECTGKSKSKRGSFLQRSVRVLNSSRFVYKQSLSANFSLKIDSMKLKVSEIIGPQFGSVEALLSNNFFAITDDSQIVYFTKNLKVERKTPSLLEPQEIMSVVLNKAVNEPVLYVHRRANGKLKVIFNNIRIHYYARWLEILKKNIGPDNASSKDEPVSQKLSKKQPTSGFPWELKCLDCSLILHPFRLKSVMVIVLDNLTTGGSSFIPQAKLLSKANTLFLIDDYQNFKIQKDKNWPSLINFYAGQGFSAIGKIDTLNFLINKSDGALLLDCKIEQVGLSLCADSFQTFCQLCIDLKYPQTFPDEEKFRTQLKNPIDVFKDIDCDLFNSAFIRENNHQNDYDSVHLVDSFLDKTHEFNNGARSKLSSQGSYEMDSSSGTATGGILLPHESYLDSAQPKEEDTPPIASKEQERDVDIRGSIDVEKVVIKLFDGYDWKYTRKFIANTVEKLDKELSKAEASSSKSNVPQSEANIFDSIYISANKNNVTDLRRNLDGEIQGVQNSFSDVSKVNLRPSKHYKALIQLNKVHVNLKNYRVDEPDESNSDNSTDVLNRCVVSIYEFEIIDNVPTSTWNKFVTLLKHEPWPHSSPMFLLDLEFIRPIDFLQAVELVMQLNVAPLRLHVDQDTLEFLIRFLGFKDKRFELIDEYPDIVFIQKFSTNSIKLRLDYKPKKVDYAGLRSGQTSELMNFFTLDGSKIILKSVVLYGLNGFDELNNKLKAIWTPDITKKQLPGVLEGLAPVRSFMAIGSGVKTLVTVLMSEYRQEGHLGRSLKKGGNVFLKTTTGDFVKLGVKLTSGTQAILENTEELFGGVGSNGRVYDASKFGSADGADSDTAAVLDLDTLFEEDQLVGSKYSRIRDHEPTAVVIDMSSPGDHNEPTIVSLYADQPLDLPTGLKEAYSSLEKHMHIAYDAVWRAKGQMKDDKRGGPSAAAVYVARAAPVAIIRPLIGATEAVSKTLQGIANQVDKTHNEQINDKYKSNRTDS
Chain of Atg2-Atg18-CBP complex (P53855 whole entry, chain 1 of 2): as the sequence (P53855 whole entry) above
Chain of Atg2-Atg18-CBP complex (P43601 whole entry, chain 2 of 2): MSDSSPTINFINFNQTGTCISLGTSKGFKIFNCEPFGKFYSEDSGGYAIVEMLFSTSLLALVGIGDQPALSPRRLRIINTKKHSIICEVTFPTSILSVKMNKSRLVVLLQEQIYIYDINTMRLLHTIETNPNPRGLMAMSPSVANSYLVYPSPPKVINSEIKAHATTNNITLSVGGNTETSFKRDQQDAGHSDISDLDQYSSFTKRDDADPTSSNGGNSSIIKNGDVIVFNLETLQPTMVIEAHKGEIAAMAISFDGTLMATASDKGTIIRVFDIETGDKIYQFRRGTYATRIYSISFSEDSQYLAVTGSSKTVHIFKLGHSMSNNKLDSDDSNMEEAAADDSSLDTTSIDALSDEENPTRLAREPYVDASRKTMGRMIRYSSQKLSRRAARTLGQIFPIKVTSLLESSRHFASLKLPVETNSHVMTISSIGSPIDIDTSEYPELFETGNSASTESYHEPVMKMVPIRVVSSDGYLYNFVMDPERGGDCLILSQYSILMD

B1: Atg11 (full length; fluorescent tag of this experiment not told) (natural protein)
chain: MADADEYSTAPTQQEITPLQTTATIINAISGECITTNVDFFVSLDKFKQFIARKWKIPPDQLLILLPYGNKLKPSMFKELLINRSFTLNDFYVYDRRLFSLVSKPTPTNLLTSKDSNPMNSPNSNDLTETLEYLIKNSHISQYQGSDTIMIKPMPSPLEDADVDLSRLNYHSVTSLLTTNLGWLSALEIDVHYFKSLIPDIIAHIKRIFDGLTVCSQYLKLYCFDVESLYNSNVQFLNQLVDNGMTSKWEKCFNDTLSKLTALEGDSLQKFINIESLLENEKSVKILNHSINGKLNKIKREIDENASFRDIITVNIDRLRQMFTPNESKFELEDQMAESFEVLVSEMRTRSRNVLDKEEEEFNSQEFLKSMNVMLEKDKKESVKTLFTISQALYSQIGELIDLKKSLQKHAVAILGNIAFTQMEILGIKRLLLNECNKDLELYKKYEVEFAQVEDLPLIYGLYLIEKYRRLSWFQQILSFISNFNQDLELFKQNELRTRNKWVKNFGSIATVFCEDLLSSSDFKRLNEYHSHTSPPNEDEEDENENSIANYRQDLVKVSQAIDNYMTQIKETDVSEPIIDLLSKTLFETKRFHIIYSNFKNNNNNSSNGNSISPEGSIALKSDDVVKGYKTRIKKLESLLHEFQYSDIGHWPQGVLNTHLKPFRGSATSINKKKFLGASVLLEPANISEVNIDSVSQANNHQIQELESNVDDLLHQLQLLKEENNRKSMQISEMGKKISDLEVEKTAYRETLTNLNQELARLTNEEQSHRTEIFTLNASFKKQLNDIISQDNEKIEKLTGDYDDVSKSRERLQMDLDESNKKHEQEVNLLKADIERLGKQIVTSEKSYAETNSSSMEKGEKFETIPLAEDPGRENQISAYTQTLQDRIFDIISTNIFILENIGLLLTFDNNNNIQIRRVKGLKKGTAQSNILDESTQMLDAHDNSLIKSPVFQKLKDEYELIKSVANGSEKDTQQSIFLGNITQLYDNKLYEVAVIRRFKDIETLAKKLTKENKIKRTLLERFQREKVTLRNFQIGDLALFLPTRENVNSVGSMSSSTSSLSSSFSSVDLSTPPPLDAMSIQSSPSVIHSNVINQASISGRDKNKLMRPWAAFTAFEESTRYFLKDEKGLTKGKEWFVGRIVTLEHFVADSPSNNPFRLPKGSVWFQVTAVVVSYQGV
stoichiometry N [1]: 2

B2: Atg12–Atg5-Atg16-GFP complex (complex)
chain 1: MSRILESENETESDESSIISTNNGTAMERSRNNQELRSSPHTVQNRLELFSRRLSQLGLASDISVDQQVEDSSSGTYEQEETIKTNAQTSKQKSHKDEKNIQKIQIKFQPIGSIGQLKPSVCKISMSQSFAMVILFLKRRLKMDHVYCYINNSFAPSPQQNIGELWMQFKTNDELIVSYCASVAFG
chain 2: MNDIKQLLWNGELNVLVSIDPSFLMKGSPREIAVLRIRVPRETYLVNYMPLIWNKIKSFLSFDPLTDSEKYFWFEHNKTPIPWNYPVGVLFDCLAGKSATFTTSFENQVKDVLTFLRIHLVMGDSLPPTIIPIASSKTQAEKFWFHQWKQVCFILNGSSKAIMSLSVNEARKFWGSVITRNFQDFIEISNKISSSRPRHIPLIIQTSRTSGTFRISQPTISMTGVNPTLKDIEGDILDVKEGINGNDVMVICQGIEIPWHMLLYDLYSKLRSFDGFLYITLVPIKGGDKASSEL
chain 3: MGNFIITERKKAKEERSNPQTDSMDDLLIRRLTDRNDKEAHLNELFQDNSGAIGGNIVSHDDALLNTLAILQKELKSKEQEIRRLKEVIALKNKNTERLNDELISGTIENNVLQQKLSDLKKEHSQLVARWLKKTEKETEAMNSEIDGTK
modifications: Atg12–Atg5 conjugate | Atg12–Atg5 conjugate
binding result (Atg2-Atg18-CBP complex): binds

B4: Atg9-EGFP in proteoliposomes (Atg9 PLs) (natural protein)
chain: MERDEYQLPNSHGKNTFLSRIFGLQSDEVNPSLNSQEMSNFPLPDIERGSSLLHSTNDSREDVDENDLRVPESDQGTSTEEEDEVDEEQVQAYAPQISDGLDGDHQLNSVTSKENVLETEKSNLERLVEGSTDDSVPKVGQLSSEEEEDNEFINNDGFDDDTPLFQKSKIHEFSSKKSNTIEDGKRPLFFRHILQNNRPQRDTQKLFTSSNAIHHDKDKSANNGPRNINGNQKHGTKYFGSATQPRFTGSPLNNTNRFTKLFPLRKPNLLSNISVLNNTPEDRINTLSVKERALWKWANVENLDIFLQDVYNYYLGNGFYCIILEKILNICTLLFVVFVSTYMGHCVDYSKLPTSHRVSDIIIDKCYSNSITGFTKFFLWMFYFFVILKIVQLYFDVQKLSELQNFYKYLLNISDDELQTLPWQNVIQQLMYLKDQNAMTANVVEVKAKNRIDAHDVANRIMRRENYLIALYNSDILNLSLPIPLFRTNVLTKTLEWNINLCVMGFVFNESGFIKQSILKPSQREFTREELQKRFMLAGFLNIILAPFLVTYFVLLYFFRYFNEYKTSPGSIGARQYTPIAEWKFREYNELYHIFKKRISLSTTLANKYVDQFPKEKTNLFLKFVSFICGSFVAILAFLTVFDPENFLNFEITSDRSVIFYITILGAIWSVSRNTITQEYHVFDPEETLKELYEYTHYLPKEWEGRYHKEEIKLEFCKLYNLRIVILLRELTSLMITPFVLWFSLPSSAGRIVDFFRENSEYVDGLGYVCKYAMFNMKNIDGEDTHSMDEDSLTKKIAVNGSHTLNSKRRSKFTAEDHSDKDLANNKMLQSYVYFMDDYSNSENLTGKYQLPAKKGYPNNEGDSFLNNKYSWRKQFQPGQKPELFRIGKHALGPGHNISPAIYSTRNPGKNWDNNNNGDDIKNGTNNATAKNDDNNGNNDHEYVLTESFLDSGAFPNHDVIDHNKMLNSNYNGNGILNKGGVLGLVKEYYKKSDVGR
binding result (mCherry-Atg11): binds

Other lines, results leading:

binding result (Atg2-mEGFP): binds
B3: Atg5-mCherry-Atg16(1-46) (complex)
chain 1: MNDIKQLLWNGELNVLVSIDPSFLMKGSPREIAVLRIRVPRETYLVNYMPLIWNKIKSFLSFDPLTDSEKYFWFEHNKTPIPWNYPVGVLFDCLAGKSATFTTSFENQVKDVLTFLRIHLVMGDSLPPTIIPIASSKTQAEKFWFHQWKQVCFILNGSSKAIMSLSVNEARKFWGSVITRNFQDFIEISNKISSSRPRHIPLIIQTSRTSGTFRISQPTISMTGVNPTLKDIEGDILDVKEGINGNDVMVICQGIEIPWHMLLYDLYSKLRSFDGFLYITLVPIKGGDKASSEL
chain 2: MGNFIITERKKAKEERSNPQTDSMDDLLIRRLTDRNDKEAHLNELF

binding result [2]: binds
B5: Atg21 (natural protein)
chain: MKVLQFNQDATCCVVAASSHQISIFNCDPFGKCFEIDTKNSKKKTSNNNGSASNSESRNNEESILITNGSRDRTDAEEEEDNEDNALVTGNILKEGEFVIEMLFSTSLIAIADRGQGLNKGKKLKIVNTKRKCTICEIVFPHEIVDVVMNRKRMCVLLESDQIFIYDISCMKPLETIDLWEDHYKRSQANSFSNASNTGTLEGDSANLNRVATNLLANATQKSVNGSNPSVRTRRNSLRSKIRPRMVLSNDDRSILCFTAYSSPKKNKPNSEALYDVVIYDTLNVTPVNYLNSVHKGNVACLAVSHDGKLLATASDKGTIIRVFHTGVDSDYMSSRSLFKEFRRGTRLCNLYQLAFDKSMTMIGCVGDTDTIHLFKLDDASNSLPGDNSSNGHWNEEEYILASNSNPSMGTPKEIPLSKPRIANYFSKKIKSSIPNQNLSRNFAYITVNESNRSCLGFPDEFPNQVYIASDDGTFSIYSIPSKPGECVLTKNNKFT

binding result (mCherry-Atg11): binds
B6: Atg19-3D (S390D, S391D, S396D) (natural protein)
chain: MNNSKTNQQMNTSMGYPLTVYDECNKFQLIVPTLDANIMLWCIGQLSLLNDSNGCKHLFWQPNDKSNVRILLNNYDYGHLFKYLQCQRKCSVYIGEGTLKKYNLTISTSFDNFLDLTPSEEKESLCREDAHEDPVSPKAGSEEEISPNSTSNVVVSRECLDNFMKQLLKLEESLNKLELEQKVTNKEPNHRISGTIDIPEDRSELVNFFTELKTVKQLEDVFQRYHDYERLSQECDSKTEIASDHSKKETKIEVEPPNERSLQITMNQRDNSLYFQLFNNTNSVLAGNCKLKFTDAGDKPTTQIIDMGPHEIGIKEYKEYRYFPYALDLEAGSTIEIENQYGEVIFLGKYGSSPMINLRPPSRLSAESLQASQEPFYSFQIDTLPELDDDDIISTDISLSYDGDDNEKALTWEEL
